Assay results: US20260001928A1 (CORTERIA PHARMACEUTICALS, priority 2022, published 2026)
*1 amine or outer side, *2 acyl side, *3 side chain or, on linkers, in order; H or OH if unused. Where no end group is shown, it is not given here. Side-chain parts run from the residue outwards. [ ]: non-standard residue; d: D form. The star is where a group is joined. ThP = 4-amino-tetrahydro-2H-pyran-4-yl-acetic acid, O=C(CC1(N[*:1])CCOCC1)[*:2]; C18 diacid = O=C(O)CCCCCCCCCCCCCCCCC(=O)*; γGlu = O=C(O)[C@H](CCC(=O)[*:2])N[*:1]; NMeI = CC[C@H](C)[C@H](NC)C(=O)O

B1: SEQ ID NO 133 (peptide)
peptide: Ac-IVLSLD[dV]PIKLK([γGlu-C18 diacid])KILLEQEKQKKQREQAETN[ThP]QILAQV-NH2
SMILES: CC[C@H](C)[C@H](NC(C)=O)C(=O)N[C@H](C(=O)N[C@@H](CC(C)C)C(=O)N[C@@H](CO)C(=O)N[C@@H](CC(C)C)C(=O)N[C@@H](CC(=O)O)C(=O)N[C@@H](C(=O)N1CCC[C@H]1C(=O)N[C@H](C(=O)N[C@@H](CCCCN)C(=O)N[C@@H](CC(C)C)C(=O)N[C@@H](CCCCNC(=O)CC[C@H](NC(=O)CCCCCCCCCCCCCCCCC(=O)O)C(=O)O)C(=O)N[C@@H](CCCCN)C(=O)N[C@H](C(=O)N[C@@H](CC(C)C)C(=O)N[C@@H](CC(C)C)C(=O)N[C@@H](CCC(=O)O)C(=O)N[C@@H](CCC(N)=O)C(=O)N[C@@H](CCC(=O)O)C(=O)N[C@@H](CCCCN)C(=O)N[C@@H](CCC(N)=O)C(=O)N[C@@H](CCCCN)C(=O)N[C@@H](CCCCN)C(=O)N[C@@H](CCC(N)=O)C(=O)N[C@@H](CCCNC(=N)N)C(=O)N[C@@H](CCC(=O)O)C(=O)N[C@@H](CCC(N)=O)C(=O)N[C@@H](C)C(=O)N[C@@H](CCC(=O)O)C(=O)N[C@H](C(=O)N[C@@H](CC(N)=O)C(=O)NC1(CC(=O)N[C@@H](CCC(N)=O)C(=O)N[C@H](C(=O)N[C@@H](CC(C)C)C(=O)N[C@@H](C)C(=O)N[C@@H](CCC(N)=O)C(=O)N[C@H](C(N)=O)C(C)C)[C@@H](C)CC)CCOCC1)[C@@H](C)O)[C@@H](C)CC)[C@@H](C)CC)C(C)C)C(C)C
B2: SEQ ID NO 142 (peptide)
peptide: [NMeI]VLSLD[dV]PIKLK([γGlu-C18 diacid])KILLEQEKQKKQREQAETNEQILAQV-NH2
modifications: N-terminus assumed
SMILES: CC[C@H](C)[C@H](NC)C(=O)N[C@H](C(=O)N[C@@H](CC(C)C)C(=O)N[C@@H](CO)C(=O)N[C@@H](CC(C)C)C(=O)N[C@@H](CC(=O)O)C(=O)N[C@@H](C(=O)N1CCC[C@H]1C(=O)N[C@H](C(=O)N[C@@H](CCCCN)C(=O)N[C@@H](CC(C)C)C(=O)N[C@@H](CCCCNC(=O)CC[C@H](NC(=O)CCCCCCCCCCCCCCCCC(=O)O)C(=O)O)C(=O)N[C@@H](CCCCN)C(=O)N[C@H](C(=O)N[C@@H](CC(C)C)C(=O)N[C@@H](CC(C)C)C(=O)N[C@@H](CCC(=O)O)C(=O)N[C@@H](CCC(N)=O)C(=O)N[C@@H](CCC(=O)O)C(=O)N[C@@H](CCCCN)C(=O)N[C@@H](CCC(N)=O)C(=O)N[C@@H](CCCCN)C(=O)N[C@@H](CCCCN)C(=O)N[C@@H](CCC(N)=O)C(=O)N[C@@H](CCCNC(=N)N)C(=O)N[C@@H](CCC(=O)O)C(=O)N[C@@H](CCC(N)=O)C(=O)N[C@@H](C)C(=O)N[C@@H](CCC(=O)O)C(=O)N[C@H](C(=O)N[C@@H](CC(N)=O)C(=O)N[C@@H](CCC(=O)O)C(=O)N[C@@H](CCC(N)=O)C(=O)N[C@H](C(=O)N[C@@H](CC(C)C)C(=O)N[C@@H](C)C(=O)N[C@@H](CCC(N)=O)C(=O)N[C@H](C(N)=O)C(C)C)[C@@H](C)CC)[C@@H](C)O)[C@@H](C)CC)[C@@H](C)CC)C(C)C)C(C)C

Columns and labels:
[1] = biological target: human corticotropin-releasing factor 2a (CRF2a receptor) (human), Q13324; assay: cell-based or functional assay
human corticotropin-releasing factor 2a (CRF2a receptor) (human), Q13324, sequence (Q13324 20-411): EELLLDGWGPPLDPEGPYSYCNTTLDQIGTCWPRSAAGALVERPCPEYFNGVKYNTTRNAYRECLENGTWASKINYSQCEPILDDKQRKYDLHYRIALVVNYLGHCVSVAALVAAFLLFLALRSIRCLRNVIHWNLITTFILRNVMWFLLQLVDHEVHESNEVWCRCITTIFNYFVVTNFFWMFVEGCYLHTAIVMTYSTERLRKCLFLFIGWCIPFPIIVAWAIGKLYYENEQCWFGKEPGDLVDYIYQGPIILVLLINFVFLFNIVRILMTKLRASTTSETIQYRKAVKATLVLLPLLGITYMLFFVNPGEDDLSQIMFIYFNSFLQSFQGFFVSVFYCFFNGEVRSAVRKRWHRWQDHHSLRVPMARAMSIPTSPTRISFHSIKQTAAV

CRF1R receptor = biological target: T1, CRF1R receptor (UniProt P34998 24-415, limits assumed); assay: cell-based or functional assay
T1 sequence (looked up): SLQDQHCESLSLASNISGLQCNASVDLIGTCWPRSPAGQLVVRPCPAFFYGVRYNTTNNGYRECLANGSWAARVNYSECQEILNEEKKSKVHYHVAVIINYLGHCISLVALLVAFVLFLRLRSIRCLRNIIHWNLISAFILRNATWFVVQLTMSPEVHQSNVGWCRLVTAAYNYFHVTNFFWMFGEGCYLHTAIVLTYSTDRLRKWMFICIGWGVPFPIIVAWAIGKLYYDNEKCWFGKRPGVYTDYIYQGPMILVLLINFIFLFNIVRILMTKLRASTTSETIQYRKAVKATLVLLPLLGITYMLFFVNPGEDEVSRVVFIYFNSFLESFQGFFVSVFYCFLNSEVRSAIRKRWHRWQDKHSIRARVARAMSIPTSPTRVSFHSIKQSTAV

Row | Binder | EC50 [nM] (cAMP) [1] | EC50 (CRF1R receptor) [nM] | Emax (% I) (CRF1R receptor) [%]
1 | B1 | 0.16 | > 250 | 11
2 | B2 | 0.07 | – | 3
